Here are results for two molecules from PMC3882083 (Nature methods, 2013).

One test addresses 3XFLAG-CDK4 R24H (human, UniProt P11802 1-303, R24H). Nature of the test: affinity purification with mass spectrometry.
A further test deals with 3XFLAG-CDK4 R24C (human, UniProt P11802 1-303, R24C). Nature of the test: affinity purification with mass spectrometry.
Sequence of 3XFLAG-CDK4 R24C (P11802 whole entry R24C): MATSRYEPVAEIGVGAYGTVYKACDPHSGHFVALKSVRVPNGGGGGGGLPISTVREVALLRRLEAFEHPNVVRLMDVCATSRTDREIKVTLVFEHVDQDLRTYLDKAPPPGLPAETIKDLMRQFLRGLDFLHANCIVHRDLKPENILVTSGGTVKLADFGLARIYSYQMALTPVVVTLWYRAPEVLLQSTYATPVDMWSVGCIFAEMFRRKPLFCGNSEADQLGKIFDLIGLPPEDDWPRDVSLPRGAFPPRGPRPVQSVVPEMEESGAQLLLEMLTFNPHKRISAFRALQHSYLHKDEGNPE

Sequence of 3XFLAG-CDK4 R24H (P11802 whole entry R24H): as the sequence (P11802 whole entry R24C) above, with C24H counted along it

B1: HSP90AB1 (natural protein)
chain: not shown
For the molecule B1, the “fold increase against CDK4 WT” value in the test with 3XFLAG-CDK4 R24H and in the test with 3XFLAG-CDK4 R24C was ≥ 3 fold each time.

B2: CDC37 co-chaperone (natural protein)
chain: MVDYSVWDHIEVSDDEDETHPNIDTASLFRWRHQARVERMEQFQKEKEELDRGCRECKRKVAECQRKLKELEVAEGGKAELERLQAEAQQLRKEERSWEQKLEEMRKKEKSMPWNVDTLSKDGFSKSMVNTKPEKTEEDSEEVREQKHKTFVEKYEKQIKHFGMLRRWDDSQKYLSDNVHLVCEETANYLVIWCIDLEVEEKCALMEQVAHQTIVMQFILELAKSLKVDPRACFRQFFTKIKTADRQYMEGFNDELEAFKERVRGRAKLRIEKAMKEYEEEERKKRLGPGGLDPVEVYESLPEELQKCFDVKDVQMLQDAISKMDPTDAKYHMQRCIDSGLWVPNSKASEAKEGEEAGPGDPLLEAVPKTGDEKDVSV
For B2, the “fold increase against CDK4 WT” value with 3XFLAG-CDK4 R24H and with 3XFLAG-CDK4 R24C was ≥ 3.9 fold in each case.
